Laboratory results from patent publication US20100233191A1.

Molecular target: MPP1 (proaerolysin with the furin site replaced by the PSA substrate HSSKLQ) (Aeromonas hydrophila) (UniProt P09167)
Test: cell-based or functional assay

With “Prostate-specific antigen (PSA), also referred as hK3 (from UniProt P07288 25-261) (enzyme)” the LD50 (cell killing, Trypan Blue exclusion, PSA-producing LNCaP cells, 24 h) was 100 pM and the fold difference in toxicity, PSA-producing versus non-PSA producing cells was 500 fold.
